In publication PMC4499151, “Identifying high-affinity aptamer ligands with defined cross-reactivity using high-throughput guided systematic evolution of ligands by exponential enrichment” one finds Kd data, which are given here for 15 molecules.

T1: human IL-10RA-Fc fusion (human, UniProt Q13651 22-235)
T1 sequence: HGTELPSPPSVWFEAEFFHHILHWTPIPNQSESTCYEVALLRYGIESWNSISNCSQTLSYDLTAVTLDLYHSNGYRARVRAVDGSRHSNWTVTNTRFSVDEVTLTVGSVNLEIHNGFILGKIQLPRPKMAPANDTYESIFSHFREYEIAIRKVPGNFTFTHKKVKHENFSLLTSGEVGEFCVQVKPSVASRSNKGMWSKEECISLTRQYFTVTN

B1: 411-J-A1G (ssRNA)
RNA: GGGAGAGAGGAAGAGGGAUGGGGGCCAUGACGAUGUCGUUACGUAGAUGCAGAGACUCCUAACGACGACUCGCUGAGAUCGAGA
B2: 411-J-G30T (ssRNA)
RNA: GGGAGAGAGGAAGAGGGAUGGGAGCCAUGACGAUGUCGUUACGUAGAUGCAUAGACUCCUAACGACGACUCGCUGAGAUCGAGA
B3: 411-J-G7T (ssRNA)
RNA: GGGAGAGAGGAAGAGGGAUGGGAGCCAUUACGAUGUCGUUACGUAGAUGCAGAGACUCCUAACGACGACUCGCUGAGAUCGAGA
B4: 411-J-C28T (ssRNA)
RNA: GGGAGAGAGGAAGAGGGAUGGGAGCCAUGACGAUGUCGUUACGUAGAUGUAGAGACUCCUAACGACGACUCGCUGAGAUCGAGA

The test system of the first series is human IgG (human). Nature of the series: filter binding. The note with it: Double filter binding, 37 C, binding buffer not detailed; selection buffer 20 mM HEPES, 2 mM CaCl2, 0.1 mg/ml BSA, 100-150 mM NaCl, pH 7.5.
In the case of “GGGAGAGAGGAAGAGGGAUGGGUGCUCACAAACGUGAACCAUCGUCUUGUGCCGACGACUCGCUGAGAUCGAGA [RJB#23]”, the dissociation constant Kd (as a rule, the concentration at which binding is half-saturated) was over 1000 nM.
Still for that read-out and setting: under “GGGAGAGAGGAAGAGGGAUGGGCGUCUCGUCAAUGCCCUACGUUUGUCUGUGCGACGACUCGCUGAGAUCGAGA [RJB#13]” stands over 1000 nM; under “GGGAGAGAGGAAGAGGGAUGGGUGCUCACAUACGUGAACCAUCGUCAAUGGCCGACGACUCGCUGAGAUCGAGA [RJB#10]”, over 1000 nM; under “GGGAGAGAGGAAGAGGGAUGGGUGCUCGUUUCGAACCAUCGUAACUCCUGUGCGACGACUCGCUGAGAUCGAGA [RJB#161]”, over 1000 nM.
On the same count and under the same terms, under “GGGAGAGAGGAAGAGGGAUGGGUGCUCAUCUUGAACGCAUUGUUUCUCCGUGCGACGACUCGCUGAGAUCGAGA [RJB#31]” stands over 500 nM; under “GGGAGAGAGGAAGAGGGAUGGGUGCUCCUACUGUGGAACCAUCGUUCUUGUGCGACGACUCGCUGAGAUCGAGA [RJB#17]”, over 1000 nM.
The molecule “GGGAGAGAGGAAGAGGGAUGGGUGCUUCAUAGAAACGCGCGAUCUUCCUGUGCGACGACUCGCUGAGAUCGAGA [RJB#44]” registered a dissociation constant Kd of over 1000 nM.
Same read-out and setting: the figure for “GGGAGAGAGGAAGAGGGAUGGGAGCCAUGACGAUGUCGUUACGUAGAUGCAGAGACUCCUAACGACGACUCGCUGAGAUCGAGA [411-J]” is over 500 nM.
Consider “GGGAGAGAGGAAGAGGGAUGGGUGCUCAAUUAAGAACCAUCGCUCUCCGGUGCGACGACUCGCUGAGAUCGAGA [RJB#25]”, for which the Kd is over 1000 nM.
In turn, “GGGAGAGAGGAAGAGGGAUGGGAAAGACCGUUUUUUAAAACGCUCAAUAUACACGACAUAAACGACGACUCGCUGAGAUCGAGA [446 (#3)]” had a Kd of over 500 nM.

Still in this series, the particulars now being: column inferred from text; Double filter binding, 37 C, binding buffer not detailed; selection buffer 20 mM HEPES, 2 mM CaCl2, 0.1 mg/ml BSA, 100-150 mM NaCl, pH 7.5.
As to “GGGAGAGAGGAAGAGGGAUGGGAAUCGCUCAGCCGGUCCGGAACUGGCAAAGUCAGGUGCUCCGACGACUCGCUGAGAUCGAGA [405 (cluster E)]”, the Kd turned out to be 120 nM.

The target in another series is T1, human IL-10RA-Fc fusion. Nature of the series: filter binding; Double filter binding, 37 C, binding buffer not detailed; selection buffer 20 mM HEPES, 2 mM CaCl2, 0.1 mg/ml BSA, 100-150 mM NaCl, pH 7.5. The following applies: protein: commercial; tags: Fc fusion; chain copies: 2; label: 5' 32P.
B1: the affinity, expressed as Kd, was 9 nM.
On the same count and under the same terms, the figure for B2 is 18 nM; for B3 it is 18 nM.
On the same count and under the same terms, under B4 stands 18 nM.
